Biological target: SMN1, wild type, LUMIER fusion, Q16637
Assay: LUMIER
Settings: chain shown with the change;; parent: est. 51000; read off a plot

SMN1, wild type, LUMIER fusion, Q16637, sequence (Q16637 whole entry, the tested form may be a part): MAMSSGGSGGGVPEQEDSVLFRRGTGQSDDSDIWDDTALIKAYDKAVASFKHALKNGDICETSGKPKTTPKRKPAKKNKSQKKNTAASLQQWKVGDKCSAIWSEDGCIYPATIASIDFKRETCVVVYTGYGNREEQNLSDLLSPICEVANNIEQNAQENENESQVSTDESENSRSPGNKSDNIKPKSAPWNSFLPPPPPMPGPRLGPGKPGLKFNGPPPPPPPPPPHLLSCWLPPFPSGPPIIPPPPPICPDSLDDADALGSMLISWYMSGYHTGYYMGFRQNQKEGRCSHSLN

response: 28000 RU
B1: PHF1, wild type, LUMIER fusion, O43189 Y47A (protein)
chain: MAQPPRLSRSGASSLWDPASPAPTSGPRPRLWEGQDVLARWTDGLLALGTIKKVDSAREVCLVQFEDDSQFLVLWKDISPAALPGEELLCCVCRSETVVPGNRLVSCEKCRHAYHQDCHVPRAPAPGEGEGTSWVCRQCVFAIATKRGGALKKGPYARAMLGMKLSLPYGLKGLDWDAGHLSNRQQSYCYCGGPGEWNLKMLQCRSCLQWFHEACTQCLSKPLLYGDRFYEFECCVCRGGPEKVRRLQLRWVDVAHLVLYHLSVCCKKKYFDFDREILPFTSENWDSLLLGELSDTPKGERSSRLLSALNSHKDRFISGREIKKRKCLFGLHARMPPPVEPPTGDGALTSFPSGQGPGGGVSRPLGKRRRPEPEPLRRRQKGKVEELGPPSAVRNQPEPQEQRERAHLQRALQASVSPPSPSPNQSYQGSSGYNFRPTDARCLPSSPIRMFASFHPSASTAGTSGDSGPPDRSPLELHIGFPTDIPKSAPHSMTASSSSVSSPSPGLPRRSAPPSPLCRSLSPGTGGGVRGGVGYLSRGDPVRVLARRVRPDGSVQYLVEWGGGGIF
